Experimental data published in US10052415B2, “Tropoelastin for promoting endothelial cell adhesion or migration” (University of Utah Research Foundation, priority 2005, dated 2018).

Test system: human aortic endothelial cells (HuAEC)
Test: Boyden chamber migration assay, HuAEC
Assay type: cell-based
Conditions: FIG. 3
Procedure: Migration of HuAECs to BSA, fibronectin, and recombinant tropoelastin was measured.
We assayed the hexamer VGVAPG (SEQ ID No. 5). This hexameric sequence is repeated multiple times within the full length tropoelastin protein. […] We additionally assayed a 17 residue C-terminal fragment of the tropoelastin protein. This 17 amino acid residue is depicted in SEQ ID NO: 6 (IFPGGACLGKACGRKRK).
Briefly, 16 h before the assay, 70% confluent 75 cm^2 flasks of human melanoma A2058 cell (ATCC, passage 3-12) or human aortic endothelial cells (HAEC; Cambrex, passage 4-7) were kept in basal media (dMEM+0.1% BSA, or EBM-2+1% FCS, respectively). Cells were lifted with 0.25% Trypsin/1 mM EDTA, diluted in 0.5% BSA (dMEM) and washed 3 times in basal media (dMEM+0.1% BSA) or (EBM-2+0.1% FCS,) and recovered in suspension at working density (2×10^6/ml for A2058 or 1.5×10^6 HAEC) for 1 h at 37° C. (5% CO2). For migration-inhibition assays, the cells were preincubated during the recovery period for 30 minutes in 25 μg/ml anti-integrin antibodies (Chemicon, Temecula, Calif.) or control IgG (Jackson ImmunoResearch, Inc.). All migration assays were performed in triplicate in a 48-well Boyden chamber apparatus (NeuroProbe, Cabin John, Md.). The recovered cells were added to the bottom chambers in a volume of 30 μl. The wells were overlayed with an 8 μm-pore polycarbonate membrane (NeuroProbe, Cabin John, Md.) and coated with 100 μg/ml Rat tail collagen (Trevigen, Gaithersburg, Md.) for A2058 cells or acetylated 1% gelatin from porcine skin (Sigma, St. Louis, Mo.) for HAEC. The apparatus was assembled and stored inverted at 37° C. (5 CO2) for a 2 h adhesion-period. The apparatus was re-inverted and 52 μl of the chemoattractants, 10 mg/ml Fibronectin, 200 ng/ml Tropoelastin, 10 μM elastin-derived peptides; VGVAPG (SEQ ID No. 5), and IFPGGACLGKACGRKRK (SEQ ID No. 6 (Cterm peptide) or 0.1% BSA/dMEM (diluent, random migration control), were added to the upper chambers and the migration was allowed to proceed for 2 h in a humidified incubator at 37° C. (5% CO2). The membranes were then removed, fixed in methanol, stained with a Hema 3 stain set (Fisher Scientific, Pittsburgh, Pa.) and mounted migrated-side down to a 50×75 mm glass slide. Before 90% mounting medium (in xylenes) was applied, the non-migrated cells were removed from the exposed, non-migrated face of the membrane with a moistened swab. Readings represent the number of cells migrating through the membrane (the sum of two high power X 20 fields/well, averaged for each sextuplicate-well set).

B1: tropoelastin: recombinant human tropoelastin lacking native signal sequence, 10× His tag and Factor Xa site on N-terminus, 706 amino acid residues (SEQ ID NO: 4) (protein, listed as Homo sapiens)
chain: MGHHHHHHHHHHSSGGIEGRGGVPGAIPGGVPGGVFYPGAGLGALGGGALGPGGKPLKPVPGGLAGAGLGAGLGAFPAVTFPGALVPGGVADAAAAYKAAKAGAGLGGVPGVGGLGVSAGAVVPQPGAGVKPGKVPGVGLPGVYPGGVLPGARFPGVGVLPGVPTGAGVKPKAPGVGGAFAGIPGVGPFGGPQPGVPLGYPIKAPKLPGGYGLPYTTGKLPYGYGPGGVAGAAGKAGYPTGTGVGPQAAAAAAAKAAAKFGAGAAGVLPGVGGAGVPGVPGAIPGIGGIAGVGTPAAAAAAAAAAKAAKYGAAAGLVPGGPGFGPGVVGVPGAGVPGVGVPGAGIPVVPGAGIPGAAVPGVVSPEAAAKAAAKAAKYGARPGVGVGGIPTYGVGAGGFPGFGVGVGGIPGVAGVPGVGGVPGVGGVPGVGISPEAQAAAAAKAAKYGVGTPAAAAAKAAAKAAQFALLNLAGLVPGVGVAPGVGVAPGVGVAPGVGLAPGVGVAPGVGVAPGVGVAPGIGPGGVAAAAKSAAKVAAKAQLRAAAGLGAGIPGLGVGVGVPGLGVGAGVPGLGVGAGVPGFGAVPGALAAAKAAKYGAAVPGVLGGLGALGGVGIPGGVVGAGPAAAAAAAKAAAKAAQFGLVGAAGLGGLGVGGLGVPGVGGLGGIPPAAAAKAAKYGVAARPGFGLSPIFPGGACLGKACGRKRK
  level of HuAEC migration relative to comparator: comparable to that of fibronectin
200 ng/ml Tropoelastin, 10 μM peptides, BSA control
  migration of HuAECs: promoted endothelial cell migration
